Results taken from patent CN110713539A.

Biological target: CEA抗原 (癌胚抗原, Carcinoembrynio Antigen), soluble antigen (UniProt P06731)
Experiment: SPR (Biacore), antibody immobilised on chip, antigen in solution, 1:1 binding

Sequence of UniProt P06731 (P06731 35-685 limits assumed): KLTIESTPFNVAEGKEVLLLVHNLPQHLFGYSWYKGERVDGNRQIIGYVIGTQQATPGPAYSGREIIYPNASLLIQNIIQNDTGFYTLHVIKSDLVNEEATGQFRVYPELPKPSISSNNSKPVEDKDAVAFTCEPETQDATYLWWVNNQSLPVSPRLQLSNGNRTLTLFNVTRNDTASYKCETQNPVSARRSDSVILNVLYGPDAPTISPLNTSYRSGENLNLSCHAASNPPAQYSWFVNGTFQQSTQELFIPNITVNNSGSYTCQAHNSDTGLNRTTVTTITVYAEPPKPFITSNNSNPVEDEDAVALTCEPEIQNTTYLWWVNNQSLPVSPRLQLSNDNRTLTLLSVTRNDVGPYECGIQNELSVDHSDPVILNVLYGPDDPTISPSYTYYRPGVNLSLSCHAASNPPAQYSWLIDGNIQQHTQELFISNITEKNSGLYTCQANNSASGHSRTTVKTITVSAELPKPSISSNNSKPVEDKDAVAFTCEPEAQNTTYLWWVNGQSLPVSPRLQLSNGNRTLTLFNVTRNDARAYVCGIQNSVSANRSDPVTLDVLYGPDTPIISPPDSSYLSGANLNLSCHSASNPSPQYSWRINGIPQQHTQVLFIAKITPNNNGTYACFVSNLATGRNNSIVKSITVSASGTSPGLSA

B1: OLD-2ND-3-H6-scFv-mIgG1 (Fc fusion, part only; not given: linker and mouse Fc tag, not shown: a dimerising Fc or GST)
chain, part: ETTLTQSPGTLSLSPGERATLSCRASQSVNNNFLGWYQQRVGQAPRLLIYGASSRATGIPDRFSGSGSGTDFTLTISRLEPEDFAVYYCQQYGSSPLTFGGGTKVEIKMAQVQLQESGGGSVQPGGSLRLSCAASGFTFSSYAMSWVRQAPGKGLEWVSHISGSGGNTYYADSVKGRFTISRDNSKNTLYLQMNSLRAEDTAVYYCAKSWGSSNYGTFDIWGQGTVVTVSS
- Kd: 43.1 nM
- koff: 0.0111 s⁻¹
- kon: 259000 M⁻¹ s⁻¹
